Target: His-tagged SA2107 labelled with ATTO 488 (SA2107_(488)) (Staphylococcus aureus)
Assay: flow-induced dispersion analysis (FIDA); PreMix method; 20 nM SA2107_(488) as indicator, preincubated 10 min with 0-2 µM unlabelled ComK1 or ComK2 as analyte; PBS + Tween 0.1%; 25 °C; change of the apparent hydrodynamic radius; three independent experiments

Substance: His6-tagged ComK2 (recombinant, purified) (natural protein)
- Kd: 420 nM

Reference: publication PMC12491500
